The text below walks through data of article PMC3733360 (Structure (London, England : 1993), 2008).

Assay [1] concerns the target T1, Snc2pS (soluble Snc2p, amino acids 1-93), wild type (yeast, UniProt P33328 1-93).
T1 sequence (looked up): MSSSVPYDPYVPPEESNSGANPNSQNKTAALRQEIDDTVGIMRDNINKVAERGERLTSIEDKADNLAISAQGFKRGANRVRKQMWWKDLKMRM
The experiment in a line: EPR line shape.

The target in assay [2] is T2, Sso1pHT (amino acids 185-290 of Sso1p lacking the regulatory Habc domain), wild type (yeast, UniProt P32867 185-290).
T2 sequence (looked up): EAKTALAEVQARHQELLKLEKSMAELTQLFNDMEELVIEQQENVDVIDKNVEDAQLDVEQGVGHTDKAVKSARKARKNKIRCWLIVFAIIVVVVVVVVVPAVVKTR
As to the kind of experiment: EPR line shape.

Assay [3] deals with T3, Sec9c (amino acids 401-651 of Sec9), wild type (yeast, UniProt P40357 401-651).
T3 sequence (looked up): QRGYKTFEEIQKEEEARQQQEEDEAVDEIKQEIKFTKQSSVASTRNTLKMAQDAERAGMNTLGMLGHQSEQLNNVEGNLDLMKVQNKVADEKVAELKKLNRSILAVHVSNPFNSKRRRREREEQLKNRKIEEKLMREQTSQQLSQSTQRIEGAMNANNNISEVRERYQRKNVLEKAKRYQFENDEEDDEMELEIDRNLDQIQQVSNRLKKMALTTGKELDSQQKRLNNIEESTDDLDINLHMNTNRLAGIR
The experiment in a line: FRET or BRET. A general note: Bioluminescence resonance energy transfer reports proximity on the nanometre scale.

B1: Sec9c D599C, spin labeled with MTSSL (SN2) (domain or fragment, yeast, UniProt P40357 401-651, looked up)
chain: QRGYKTFEEIQKEEEARQQQEEDEAVDEIKQEIKFTKQSSVASTRNTLKMAQDAERAGMNTLGMLGHQSEQLNNVEGNLDLMKVQNKVADEKVAELKKLNRSILAVHVSNPFNSKRRRREREEQLKNRKIEEKLMREQTSQQLSQSTQRIEGAMNANNNISEVRERYQRKNVLEKAKRYQFENDEEDDEMELEIDRNLCQIQQVSNRLKKMALTTGKELDSQQKRLNNIEESTDDLDINLHMNTNRLAGIR
modifications: MTSSL nitroxide spin label on cysteine 599
Regarding B1, the “percent of SN2 in an unstructured conformation (not in the complex)” value (shortened to “percent of SN2 … (not in the complex)”) in assay [1] and in assay [2] was roughly 60% each time.

B2: Sec9c N627C, spin labeled with MTSSL (SN2) (domain or fragment, yeast, UniProt P40357 401-651, looked up)
chain: QRGYKTFEEIQKEEEARQQQEEDEAVDEIKQEIKFTKQSSVASTRNTLKMAQDAERAGMNTLGMLGHQSEQLNNVEGNLDLMKVQNKVADEKVAELKKLNRSILAVHVSNPFNSKRRRREREEQLKNRKIEEKLMREQTSQQLSQSTQRIEGAMNANNNISEVRERYQRKNVLEKAKRYQFENDEEDDEMELEIDRNLDQIQQVSNRLKKMALTTGKELDSQQKRLCNIEESTDDLDINLHMNTNRLAGIR
modifications: MTSSL nitroxide spin label on cysteine 627
For the molecule B2, the “percent of SN2 … (not in the complex)” value in assay [1] and in assay [2] was roughly 60% in each case.

B3: Sec9c N606C, spin labeled with MTSSL (SN2) (domain or fragment, yeast, UniProt P40357 401-651, looked up)
chain: QRGYKTFEEIQKEEEARQQQEEDEAVDEIKQEIKFTKQSSVASTRNTLKMAQDAERAGMNTLGMLGHQSEQLNNVEGNLDLMKVQNKVADEKVAELKKLNRSILAVHVSNPFNSKRRRREREEQLKNRKIEEKLMREQTSQQLSQSTQRIEGAMNANNNISEVRERYQRKNVLEKAKRYQFENDEEDDEMELEIDRNLDQIQQVSCRLKKMALTTGKELDSQQKRLNNIEESTDDLDINLHMNTNRLAGIR
modifications: MTSSL nitroxide spin label on cysteine 606
Regarding B3, the “percent of SN2 … (not in the complex)” value in assay [1] and in assay [2] was roughly 60% in each case.

B4: Sec9c D620C, spin labeled with MTSSL (SN2) (domain or fragment, yeast, UniProt P40357 401-651, looked up)
chain: QRGYKTFEEIQKEEEARQQQEEDEAVDEIKQEIKFTKQSSVASTRNTLKMAQDAERAGMNTLGMLGHQSEQLNNVEGNLDLMKVQNKVADEKVAELKKLNRSILAVHVSNPFNSKRRRREREEQLKNRKIEEKLMREQTSQQLSQSTQRIEGAMNANNNISEVRERYQRKNVLEKAKRYQFENDEEDDEMELEIDRNLDQIQQVSNRLKKMALTTGKELCSQQKRLNNIEESTDDLDINLHMNTNRLAGIR
modifications: MTSSL nitroxide spin label on cysteine 620
Turning to B4, the “percent of SN2 … (not in the complex)” value in assay [1] and in assay [2] was roughly 60% throughout.

B5: Sec9c H641C, spin labeled with MTSSL (SN2) (domain or fragment, yeast, UniProt P40357 401-651, looked up)
chain: QRGYKTFEEIQKEEEARQQQEEDEAVDEIKQEIKFTKQSSVASTRNTLKMAQDAERAGMNTLGMLGHQSEQLNNVEGNLDLMKVQNKVADEKVAELKKLNRSILAVHVSNPFNSKRRRREREEQLKNRKIEEKLMREQTSQQLSQSTQRIEGAMNANNNISEVRERYQRKNVLEKAKRYQFENDEEDDEMELEIDRNLDQIQQVSNRLKKMALTTGKELDSQQKRLNNIEESTDDLDINLCMNTNRLAGIR
modifications: MTSSL nitroxide spin label on cysteine 641
As to B5, the “percent of SN2 … (not in the complex)” value in assay [1] and in assay [2] was roughly 60% in each case.

B6: Sso1pHT E185C labeled with Cy3 (domain or fragment, yeast, UniProt P32867 185-290, looked up)
chain: CAKTALAEVQARHQELLKLEKSMAELTQLFNDMEELVIEQQENVDVIDKNVEDAQLDVEQGVGHTDKAVKSARKARKNKIRCWLIVFAIIVVVVVVVVVPAVVKTR
modifications: Cy3 maleimide on cysteine 185
Turning to B6, the binding result in assay [3] was “binds”.

B7: full-length Snc2p (amino acids 1-115) P13C labeled with Cy5 (natural protein, yeast, UniProt P33328 1-115, looked up)
chain: MSSSVPYDPYVPCEESNSGANPNSQNKTAALRQEIDDTVGIMRDNINKVAERGERLTSIEDKADNLAISAQGFKRGANRVRKQMWWKDLKMRMCLFLVVIILLVVIIVPIVVHFS
modifications: Cy5 maleimide on cysteine 13
Regarding B7, the binding result in assay [3] is recorded as “binds”.
